The target of data set [1] is T1, Monocarboxylate transporter 10 (Rattus norvegicus, UniProt Q91Y77).
T1 sequence (Q91Y77 whole entry): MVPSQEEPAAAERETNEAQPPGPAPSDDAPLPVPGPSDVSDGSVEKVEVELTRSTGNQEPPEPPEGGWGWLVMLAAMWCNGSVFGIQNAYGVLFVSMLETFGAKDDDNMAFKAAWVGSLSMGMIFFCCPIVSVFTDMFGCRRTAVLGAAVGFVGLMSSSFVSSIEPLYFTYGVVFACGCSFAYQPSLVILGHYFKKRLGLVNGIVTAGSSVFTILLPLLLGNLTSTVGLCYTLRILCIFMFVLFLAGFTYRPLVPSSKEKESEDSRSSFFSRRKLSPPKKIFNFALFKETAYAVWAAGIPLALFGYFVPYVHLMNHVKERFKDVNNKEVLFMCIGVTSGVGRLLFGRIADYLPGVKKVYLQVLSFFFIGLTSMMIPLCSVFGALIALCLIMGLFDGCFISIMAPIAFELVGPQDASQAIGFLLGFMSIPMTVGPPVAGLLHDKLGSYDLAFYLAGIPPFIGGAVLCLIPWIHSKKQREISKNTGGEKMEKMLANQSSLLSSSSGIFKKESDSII
Description: TP_TRANSPORTER: inhibition of L-tryptophan uptake in Xenopus laevis oocytes. The data set is classed as functional, cell-based, Oocyte.

Substrate in data set [2]: N[C@@H](Cc1ccc(O)cc1)C(=O)O
The following applies: Xenopus laevis; Oocyte.

Substrate in data set [3]: N[C@@H](Cc1c[nH]c2ccccc12)C(=O)O
The following applies: Xenopus laevis; Oocyte.

Substrate in data set [4]: N[C@@H](Cc1ccccc1)C(=O)O
Particulars: Xenopus laevis; Oocyte.

Substrate in data set [5]: N[C@@H](Cc1ccc(O)c(O)c1)C(=O)O
Particulars: Xenopus laevis; Oocyte.

In the case of `CC(=O)N[C@@H](Cc1c[nH]c2ccccc12)C(=O)O` [ACETYLTRYPTOPHAN], the Ki in data set [1] amounted to 1500 µM.

`CN[C@@H](Cc1c[nH]c2ccccc12)C(=O)O` [ABRINE] had a Ki in data set [1] of 3100 µM.

B1: Monocarboxylate transporter 10 (Rattus norvegicus), Q91Y77 (protein)
chain: T1 sequence (Q91Y77 whole entry)
As for B1, the Km in data set [2] was 2.59 mM; in data set [3], 3.72 mM; in data set [4] it was 7.02 mM; in data set [5] it was 6.43 mM.

The Ki is the equilibrium dissociation constant of an inhibitor or competing ligand from its target. High values mean a looser hold on the target, low ones a stronger hold on the target. The Km is the concentration of substrate that gives half-maximal velocity.
